{"source": "IntAct's records for PubMed 22364545", "parents": {"B1": {"name": "Fibroblast growth factor 14 (Homo sapiens), Q92915-2 (parent)", "chain": "MVKPVPLFRRTDFKLLLCNHKDLFFLRVSKLLDCFSPKSMWFLWNIFSKGTHMLQCLCGKSLKKNKNPTDPQLKGIVTRLYCRQGYYLQMHPDGALDGTKDDSTNSTLFNLIPVGLRVVAIQGVKTGLYIAMNGEGYLYPSELFTPECKFKESVFENYYVIYSSMLYRQQESGRAWFLGLNKEGQAMKGNRVKKTKPAAHFLPKPLEVAMYREPSLHDVGETVPKPGVTPSKSTSASAIMNGGKPVNKSKTT"}}}
{"variants_of": "B1", "details": "with scn8a_human SCN8A"}
{"variant": "MVKPVPLFRRTDFKLLLCNHKDLFFLRVSKLLDCFSPKSMWFLWNIFSKGTHMLQCLCGKSLKKNKNPTDPQLKGIVTRLYCRQGYYLQMHPDGALDGTKDDSTNSTLFNLIPVGLRVVAIQGVKTGLYIAMNGEGYLYPSELFTPECKFKESVFENNYNIYSSMLYRQQESGRAWFLGLNKEGQAMKGNRVKKTKPAAHFLPKPLEVAMYREPSLHDVGETVPKPGVTPSKSTSASAIMNGGKPVNKSKTT", "note": "[Y158N;V160N]", "effect of a mutation on the interaction": "decreasing interaction strength"}
